Reference: PMC11134608 (2023)
Each block holds one binder with its values, some of them ahead of it. No end group written: not given here. fluorescein = fluorescein (FAM) fluorescent label

Tests used:
[1] = target: T1, RARA/RXRA heterodimer (ligand-binding domains) (UniProt P10276 175-421; P19793 224-462); assay: FP; Kapp, competition with fluorescein-NCOA1 peptide, + ATRA
T1 chain 1: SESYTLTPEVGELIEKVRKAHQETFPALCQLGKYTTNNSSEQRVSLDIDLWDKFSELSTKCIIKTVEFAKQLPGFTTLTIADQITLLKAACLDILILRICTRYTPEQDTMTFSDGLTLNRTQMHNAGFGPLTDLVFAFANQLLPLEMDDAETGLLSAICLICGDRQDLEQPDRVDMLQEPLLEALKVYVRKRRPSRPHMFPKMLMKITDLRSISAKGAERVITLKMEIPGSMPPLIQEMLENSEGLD
T1 chain 2: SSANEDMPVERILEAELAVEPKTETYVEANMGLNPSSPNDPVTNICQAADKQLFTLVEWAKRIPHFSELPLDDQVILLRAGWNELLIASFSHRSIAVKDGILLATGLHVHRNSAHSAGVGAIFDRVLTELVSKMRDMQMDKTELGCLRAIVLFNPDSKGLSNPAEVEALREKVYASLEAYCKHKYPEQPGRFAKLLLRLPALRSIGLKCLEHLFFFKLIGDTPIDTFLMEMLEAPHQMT

[2] = target: T1, RARA/RXRA heterodimer (ligand-binding …); assay: FP; + DMSO (no ATRA)
[3] = target: T1, RARA/RXRA heterodimer (ligand-binding …); assay: FP; + ATRA

apparent binding constant (Kapp) [1]: 3.1 µM
Binder: RLDLLYRLLTATN [UBR5 aa1251]

apparent binding constant (Kapp) [1]: 41.4 µM
Binder: LQPYLRELLSAKD [UBR5 aa1098]

apparent binding constant (Kapp) [1]: 3.7 µM
B1: NCOA1 aa686 (peptide)
chain: ARHKILHRLLQEGS
modifications: unlabelled competitor; the tracer form carries N-terminal fluorescein. The text prints limits 687-698 for a 14-mer; the LXXLL motif at 690-694 places RHKILHRLLQEGS at 686-698, with an extra N-terminal Ala in the printed peptide

Kd [2]: 5.5 µM | Kd [3]: 0.69 µM
Binder: fluorescein-ARHKILHRLLQEGS [Fluorescein-labelled NCOA1 peptide residues 687–698 (Flc-ARHKILHRLLQEGS)]
